Here are results for one molecule from patent publication US20250041387A1 (BEIJING STOMATOLOGICAL HOSPITAL CAPITAL MEDICAL UNIVERSITY, published 2025).

The target of this test is WD repeat domain 5 (WDR5), human, endogenous in human mesenchymal stem cells (human, UniProt P61964 2-334). The experiment in a line: Co-IP with HA antibody, stem cells from apical papilla overexpressing HA-KDM6B.

Procedure: On the next day, the cells were added with Protein A/G beads and rotated on a rotary shaker at 4° C. for 2 hours. […] All cells were incubated overnight to form a complex of protein-antibody-agarose bead. […] (2) Grouping: Input group (loading amount of 25 μg); antibody group (loading amount of 800 μg, 2 μg of antibody); IgG group (loading amount of 800 μg, 2 μg of antibody). Samples were diluted with lysate. […] (3) Preparation of protein A/G beads

B1: HA-KDM6B (full-length KDM6B with HA tag, overexpressed in stem cells from apical papilla) (enzyme)
chain: MHRAVDPPGARAAREAFALGGLSCAGAWSSCPPHPPPRSAWLPGGRCSASIGQPPLPAPLPPSHGSSSGHPSKPYYAPGAPTPRPLHGKLESLHGCVQALLREPAQPGLWEQLGQLYESEHDSEEATRCYHSALRYGGSFAELGPRIGRLQQAQLWNFHTGSCQHRAKVLPPLEQVWNLLHLEHKRNYGAKRGGPPVKRAAEPPVVQPVPPAALSGPSGEEGLSPGGKRRRGCNSEQTGLPPGLPLPPPPLPPPPPPPPPPPPPLPGLATSPPFQLTKPGLWSTLHGDAWGPERKGSAPPERQEQRHSLPHPYPYPAPAYTAHPPGHRLVPAAPPGPGPRPPGAESHGCLPATRPPGSDLRESRVQRSRMDSSVSPAATTACVPYAPSRPPGLPGTTTSSSSSSSSNTGLRGVEPNPGIPGADHYQTPALEVSHHGRLGPSAHSSRKPFLGAPAATPHLSLPPGPSSPPPPPCPRLLRPPPPPAWLKGPACRAAREDGEILEELFFGTEGPPRPAPPPLPHREGFLGPPASRFSVGTQDSHTPPTPPTPTTSSSNSNSGSHSSSPAGPVSFPPPPYLARSIDPLPRPPSPAQNPQDPPLVPLTLALPPAPPSSCHQNTSGSFRRPESPRPRVSFPKTPEVGPGPPPGPLSKAPQPVPPGVGELPARGPRLFDFPPTPLEDQFEEPAEFKILPDGLANIMKMLDESIRKEEEQQQHEAGVAPQPPLKEPFASLQSPFPTDTAPTTTAPAVAVTTTTTTTTTTTATQEEEKKPPPALPPPPPLAKFPPPSQPQPPPPPPPSPASLLKSLASVLEGQKYCYRGTGAAVSTRPGPLPTTQYSPGPPSGATALPPTSAAPSAQGSPQPSASSSSQFSTSGGPWARERRAGEEPVPGPMTPTQPPPPLSLPPARSESEVLEEISRACETLVERVGRSATDPADPVDTAEPADSGTERLLPPAQAKEEAGGVAAVSGSCKRRQKEHQKEHRRHRRACKDSVGRRPREGRAKAKAKVPKEKSRRVLGNLDLQSEEIQGREKSRPDLGGASKAKPPTAPAPPSAPAPSAQPTPPSASVPGKKAREEAPGPPGVSRADMLKLRSLSEGPPKELKIRLIKVESGDKETFIASEVEERRLRMADLTISHCAADVVRASRNAKVKGKFRESYLSPAQSVKPKINTEEKLPREKLNPPTPSIYLESKRDAFSPVLLQFCTDPRNPITVIRGLAGSLRLNLGLFSTKTLVEASGEHTVEVRTQVQQPSDENWDLTGTRQIWPCESSRSHTTIAKYAQYQASSFQESLQEEKESEDEESEEPDSTTGTPPSSAPDPKNHHIIKFGTNIDLSDAKRWKPQLQELLKLPAFMRVTSTGNMLSHVGHTILGMNTVQLYMKVPGSRTPGHQENNNFCSVNINIGPGDCEWFAVHEHYWETISAFCDRHGVDYLTGSWWPILDDLYASNIPVYRFVQRPGDLVWINAGTVHWVQATGWCNNIAWNVGPLTAYQYQLALERYEWNEVKNVKSIVPMIHVSWNVARTVKISDPDLFKMIKFCLLQSMKHCQVQRESLVRAGKKIAYQGRVKDEPAYYCNECDVEVFNILFVTSENGSRNTYLVHCEGCARRRSAGLQGVVVLEQYRTEELAQAYDAFTLAPASTSR
notes: whole, on cells; Full-length protein expressed inside human SCAPs and pulled down from lysate with HA antibody; also called PQCXIN-HA-KDM6B; SCAPs-HA-KDM6B; not shown: HA tag
Turning to B1, the binding result is “binds”.
